Target: the molecule itself
Test: SEC-SAXS (small-angle X-ray scattering); in-line SEC-SAXS with sheath flow, SAXS-WAXS beamline of the Australian Synchrotron; molecular mass estimated from the Porod volume; conditions in Supplementary Table 3

B1: soluble C-terminal domain of human zinc transporter 1 (hZnT1-CTD) (domain or fragment, UniProt Q9Y6M5 342-507, looked up)
chain: ILLQTVPKQIDIRNLIKELRNVEGVEEVHELHVWQLAGSRIIATAHIKCEDPTSYMEVAKTIKDVFHNHGIHATTIQPEFASVGSKSSVVPCELACRTQCALKQCCGTLPQAPSGKDAEKTPAVSISCLELSNNLEKKPRRTKAENIPAVVIEIKNMPNKQPESSL
notes: human zinc transporter 1 (ZnT1, SLC30A1), soluble C-terminal domain, residues 342-507; Cloned into pET24a with a C-terminal His8-tag; no removal of the tag is described
  stoichiometry N: 2

— paper PMC8120272, “Heterologous Expression and Biochemical Characterization of the Human Zinc Transporter 1 (ZnT1) and Its Soluble C-Terminal Domain” (Frontiers in Chemistry, 2021)
